{"source": "patent US20200138870A1", "about": "“RECREATION OF PANCREATIC NICHE ALLOWS FOR NOVEL METHODS FOR HUMAN, MATURE BETA DERIVATION FROM PLURIPOTENT STEM CELLS” (Baylor College of Medicine, priority 2016, published 2020)", "molecules": {"B1": {"name": "WNT5A: secreted growth factor from the human pancreatic niche (R&D), used at 100 or 500 ng/ml (protein)", "chain": "IIGAQPLCSQLAGLSQGQKKLCHLYQDHMQYIGEGAKTGIKECQYQFRHRRWNCSTVDNTSVFGRVMQIGSRETAFTYAVSAAGVVNAMSRACREGELSTCGCSRAARPKDLPRDWLWGGCGDNIDYGYRFAKEFVDARERERIHAKGSYESARILMNLHNNEAGRRTVYNLADVACKCHGVSGSCSLKTCWLQLADFRKVGDALKEKYDSAAAMRLNSRGKLVQVNSRFNSPTTQDLVYIDPSPDYCVRNESTGSLGTQGRLCNKTSEGMDGCELMCCGRGYDQFKTVQTERCHCKFHWCCYVKCKKCTEIVDQFVCK"}}, "key": {"[1]": {"system": "c-JUN", "test": "p-c-JUN immunofluorescence in EPs", "assay_type": "cell-based, human", "conditions": "WNT5A short-term treatment (24h in FIG. 6G)", "method": "(§1) Cells were incubated with 5% donkey serum (Jackson ImmunoResearch Laboratories) in PBST (PBS+0.1% Triton-X) for 30 min to avoid nonspecific binding of the antibody and to permeabilize the cells. Primary antibodies, diluted in 5% donkey serum in PBST, were then added and incubated at 4° C. overnight with shaking. After primary antibody incubation, cells were washed 3 times with PBST and secondary antibodies conjugated with Alexa-Fluor Dyes (Jackson ImmunoResearch Laboratories) and diluted in 5% donkey serum in PBST were added to the cells for 30 min at RT. Then, cells were thrice washed with PBST and nuclei were stained with Dapi (Roche Diagnostics). For imaging, Leica DMI6000 or confocal Leica TCS SPE was used. Images were initially processed by LAS X software and then further analyzed and quantified using ImageJ software (NIH, W Rasband, http://rsb.info.nih.gov/ij) using cell counter plug-in. Typically, at least 5 randomly selected images were counted per condition."}, "[2]": {"system": "EPs", "test": "Proliferation by phospho-histone H3 (pH3) staining after WNT5A treatment", "assay_type": "cell-based, human", "method": "as §1"}}, "note": "Where “and” joins values, the source holds several entries; their conditions need not be identical. Equal values may be shown once.", "data": [{"molecule": "B1", "values": [{"measurement": "increase in p-c-JUN (number of c-JUN+ cells) compared to untreated control", "setting": "[1]", "result": "9 fold and 6 fold"}, {"measurement": "effect in EP proliferation (in words)", "setting": "[2]; 3 days of WNT5A treatment", "result": "modest effect"}, {"measurement": "pH3+ cells", "setting": "[2]; 3 days of WNT5A treatment (1% in control)", "result": 2, "unit": "%"}]}]}
